{
  "source": "paper PMC10955725",
  "molecular_target": "His6-Mb(S2)-Avi, recombinant monobody",
  "assay": "BLI",
  "data": [
    {"substance": "wild-type (WT) SOD1, non-tagged recombinant (from UniProt P00441 2-154) (natural protein)", "values": [
      {"measurement": "Kd", "value": 7, "unit": "µM"}
    ]}
  ]
}
